# Measurements from publication PMC2990333.
# Key:
# [1] = biological target: 25kD protein (immunoreactive P29 form of Drosophila) (Drosophila melanogaster); assay: not stated; dimerisation of the 25kD protein under in vitro conditions
# [2] = biological target: Aedes aegypti sterol carrier protein-2-like-2 (SCP-2-L2) (Aedes aegypti); assay: crystal structure; ligand-bound X-ray structure at 1.7-angstrom resolution, with bound fatty acid
# [3] = biological target: OBP48 expressed in lepidopteran cells (Anopheles gambiae); assay: co-IP + cross-linking; OBPs expressed in lepidopteran cells, examined for in vitro interactions in the absence of exogenously added ligands; chemical cross-linking
substance,measurement,setting,value
25kD protein (immunoreactive P29 form of Drosophila) (natural protein),stoichiometry N,[1],2
Aedes aegypti sterol carrier protein-2-like-2 (SCP-2-L2) (natural protein),stoichiometry N,[2],2
OBP48 expressed in lepidopteran cells (natural protein),stoichiometry N,[3],2
